Experimental findings from article PMC3671583 are described below.

Among the targets are CCHFC NZF-1-F2F3 (Rattus norvegicus, UniProt P70475 487-584, H522A;H523F;H567F); NZF-1-F2F3 (Rattus norvegicus, UniProt P70475 487-584); CCFHC NZF-1-F2F3 (Rattus norvegicus, UniProt P70475 487-584, H515F;H559F); MyT1-F2F3 (Rattus norvegicus, UniProt D3ZYT5 425-521).
Common to all, as to assay: fluorescence anisotropy

Chain of CCHFC NZF-1-F2F3 (P70475 487-584 H522A/H523F/H567F): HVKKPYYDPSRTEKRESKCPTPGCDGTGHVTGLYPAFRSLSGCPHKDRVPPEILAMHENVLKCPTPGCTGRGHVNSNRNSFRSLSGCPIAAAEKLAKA
Chain of CCFHC NZF-1-F2F3 (P70475 487-584 H515F/H559F): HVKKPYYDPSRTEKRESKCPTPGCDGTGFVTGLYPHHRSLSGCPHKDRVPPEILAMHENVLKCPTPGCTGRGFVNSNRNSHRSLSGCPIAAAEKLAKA
Chain of NZF-1-F2F3 (P70475 487-584): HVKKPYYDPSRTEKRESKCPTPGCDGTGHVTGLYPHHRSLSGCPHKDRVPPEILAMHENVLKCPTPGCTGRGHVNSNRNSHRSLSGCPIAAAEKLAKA

B1: random DNA (dsDNA)
DNA 1: TGTTTCTGCCTCTGT
DNA 2: ACAGAGGCAGAAACA
On to B1, for which the binding result with CCHFC NZF-1-F2F3, with NZF-1-F2F3 and with CCFHC NZF-1-F2F3 was “no binding” each time. Moreover, in the data set with MyT1-F2F3, the Kd turned out to be 910 nM.

B2: β-RAR DNA (dsDNA)
DNA 1: CACCGAAAGTTCACTC
DNA 2: GAGTGAACTTTCGGTG
Take B2: the binding result with CCHFC NZF-1-F2F3 and in the data set with CCFHC NZF-1-F2F3 was “no binding” each time. Besides, the Kd was 14 nM in the data set with NZF-1-F2F3 and 1300 nM with MyT1-F2F3.
